Results taken from US20200323888A1, “INHIBITORS” (VESTLANDETS INNOVASJONSSELSKAP AS, priority 2017, published 2020).
Square brackets hold non-standard residues; d marks the D form. Ends that are not written are not given here. Nle = CCCC[C@H](N)C(=O)O; CoA = coenzyme A

T1: MBP-HishNAA80 fusion protein (MBP-Naa80) (human, UniProt Q93015-2 1-308)
T1 sequence (looked up): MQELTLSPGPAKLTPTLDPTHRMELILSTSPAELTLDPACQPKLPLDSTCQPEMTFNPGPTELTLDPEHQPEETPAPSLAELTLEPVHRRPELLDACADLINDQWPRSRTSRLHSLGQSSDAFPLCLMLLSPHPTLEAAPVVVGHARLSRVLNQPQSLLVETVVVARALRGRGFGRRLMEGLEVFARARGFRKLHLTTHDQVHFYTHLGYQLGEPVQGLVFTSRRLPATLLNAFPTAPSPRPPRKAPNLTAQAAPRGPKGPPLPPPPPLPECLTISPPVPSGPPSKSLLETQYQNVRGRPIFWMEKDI

T2: Naa80 (Homo sapiens, UniProt Q93015)
T2 construct: The PCR product containing the CDS was inserted into the TOPO TA vector; made in house; host or cells: E. coli BL21 Star (DE3)
T2 sequence (Q93015 1-308 isoform Q93015-2): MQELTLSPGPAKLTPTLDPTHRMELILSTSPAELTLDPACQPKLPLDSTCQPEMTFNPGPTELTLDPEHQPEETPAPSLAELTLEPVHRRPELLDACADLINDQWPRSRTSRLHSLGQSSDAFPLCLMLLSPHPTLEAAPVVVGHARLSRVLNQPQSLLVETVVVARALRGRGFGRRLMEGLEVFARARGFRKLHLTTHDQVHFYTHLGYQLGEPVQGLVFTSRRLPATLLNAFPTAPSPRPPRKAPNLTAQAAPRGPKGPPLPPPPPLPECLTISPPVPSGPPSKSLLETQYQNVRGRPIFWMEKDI

T3: NatA complex (Naa15-Naa10) (human, UniProt P41227 1-235; Q9BXJ9 1-866)
T3 sequence (looked up) 1: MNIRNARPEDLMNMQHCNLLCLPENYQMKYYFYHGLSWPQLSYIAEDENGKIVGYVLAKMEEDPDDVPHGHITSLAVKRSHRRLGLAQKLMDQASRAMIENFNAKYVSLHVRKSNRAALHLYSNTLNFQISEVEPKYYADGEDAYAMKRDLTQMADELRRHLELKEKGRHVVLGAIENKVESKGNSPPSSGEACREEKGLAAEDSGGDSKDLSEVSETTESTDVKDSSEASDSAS
T3 sequence (looked up) 2: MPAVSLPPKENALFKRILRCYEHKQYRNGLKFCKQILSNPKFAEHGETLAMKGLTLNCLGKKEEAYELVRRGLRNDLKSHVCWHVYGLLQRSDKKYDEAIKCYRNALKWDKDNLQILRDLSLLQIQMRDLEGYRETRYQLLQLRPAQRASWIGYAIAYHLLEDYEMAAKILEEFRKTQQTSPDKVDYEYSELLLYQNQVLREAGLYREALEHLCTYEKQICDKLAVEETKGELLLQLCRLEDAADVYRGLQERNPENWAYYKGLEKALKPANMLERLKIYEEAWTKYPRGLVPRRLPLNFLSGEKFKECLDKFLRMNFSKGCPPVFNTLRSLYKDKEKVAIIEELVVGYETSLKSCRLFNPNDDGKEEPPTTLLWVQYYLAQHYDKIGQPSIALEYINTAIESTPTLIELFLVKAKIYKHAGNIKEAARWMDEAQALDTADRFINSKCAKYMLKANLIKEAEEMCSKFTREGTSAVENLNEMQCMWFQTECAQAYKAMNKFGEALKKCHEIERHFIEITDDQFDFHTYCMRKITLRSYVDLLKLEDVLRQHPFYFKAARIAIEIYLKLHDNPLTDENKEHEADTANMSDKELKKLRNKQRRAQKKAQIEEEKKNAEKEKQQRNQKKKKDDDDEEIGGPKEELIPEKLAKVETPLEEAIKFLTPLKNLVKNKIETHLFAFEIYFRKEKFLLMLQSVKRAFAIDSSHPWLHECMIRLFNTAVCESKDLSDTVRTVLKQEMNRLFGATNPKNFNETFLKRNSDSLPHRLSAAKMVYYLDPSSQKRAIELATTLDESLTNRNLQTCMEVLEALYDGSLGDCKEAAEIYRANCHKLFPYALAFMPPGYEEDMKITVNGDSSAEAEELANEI


These molecules were tested against T1, MBP-HishNAA80 fusion protein (MBP-Naa80) (assay: cell-based or functional assay). Conditions: not given.

Molecule | IC50 (µM), Nt-acetylation inhibition [µM]
{CoA-Ac}-MDEL-NH2 [CoA-Ac-MDEL-NH2] | 1.26
{CoA-Ac}-DDEI-NH2 [DDEI (Naa80 bisubstrate analogue inhibitor)] | 2.67
{CoA-Ac}-DEEI-NH2 [DEEI (Naa80 bisubstrate analogue inhibitor)] | 1.22
{CoA-Ac}-DEDI-NH2 [DEDI (Naa80 bisubstrate analogue inhibitor)] | 3.12
{CoA-Ac}-EDDI-NH2 [EDDI (Naa80 bisubstrate analogue inhibitor)] | 0.12
{CoA-Ac}-EDEI-NH2 [EDEI (Naa80 bisubstrate analogue inhibitor)] | 0.76
{CoA-Ac}-EEEI-NH2 [CoA-Ac-EEEI-NH2] | 1.16
{CoA-Ac}-DEEL-NH2 [DEEL (Naa80 bisubstrate analogue inhibitor)] | 4.73

Results, then the molecule that gave them:

IC50 (µM), Nt-acetylation inhibition [µM] | Molecule
1.76 | {CoA-Ac}-EEDL-NH2 [EEDL (Naa80 bisubstrate analogue inhibitor)]
0.15 | {CoA-Ac}-EDEL-NH2 [EDEL (Naa80 bisubstrate analogue inhibitor)]
2.23 | {CoA-Ac}-QEEI-NH2 [QEEI (Naa80 bisubstrate analogue inhibitor)]
11.5 | {CoA-Ac}-ESEL-NH2 [ESEL (Naa80 bisubstrate analogue inhibitor)]
0.85 | {CoA-Ac}-EDQL-NH2 [EDQL (Naa80 bisubstrate analogue inhibitor)]
1.16 | {CoA-Ac}-EEEL-NH2 [EEEL (Naa80 bisubstrate analogue inhibitor)]
13.4 | {CoA-Ac}-PDEL-NH2 [PDEL (Naa80 bisubstrate analogue inhibitor)]
0.17 | {CoA-Ac}-EEDI-NH2 [EEDI (Naa80 bisubstrate analogue inhibitor)]

Biological target: T1, MBP-HishNAA80 fusion protein (MBP-Naa80)
Experiment: cell-based or functional assay
Conditions: not given
Remark: another data set of the same source

Molecule | Product formation [µM]
DDDIAALRWGRPVGRRRRPVRVYP [DDDI24] | 50.5
AVFADLDRWGRPVGRRRRPVRVYP [AVFA24] | -0.96

Second part, the molecule after the results:

Product formation [µM] | Molecule
42.4 | EEEIAALRWGRPVGRRRRPVRVYP [EEEI24]
119 | MDELFPLRWGRPVGRRRRPVRVYP [MDEL24]
2.28 | MAPLDLDRWGRPVGRRRRPVRVYP [MAPL24]
1.14 | SESSSKSRWGRPVGRRRRPVRVYP [SESS24]
2.15 | MELLSPPRWGRPVGRRRRPVRVYP [MELL24]
-4.25 | MTNKSSLRWGRPVGRRRRPVRVYP [MTNK24]
3.37 | MKKSYSGRWGRPVGRRRRPVRVYP [MKKS24]
2.06 | MLGPEGGRWGRPVGRRRRPVRVYP [MLGP24]

Each molecule was assayed against T2, Naa80 (assay: Naa80 substrate screening assay (peptide acetylation by purified Naa80)). Conditions: Naa80 mediated acetylation of 24-mer peptide substrates.
Format: biochemical
From the text: In order to investigate the in vitro activity of Naa80 further, an enzyme activity screening assay on purified Naa80 was undertaken using a broad substrate library (including amino acids, nucleosides, coenzymes, amines, saccharides, vitamins, antioxidants and peptides) modified from Kuhn et al. (Kuhn et al. (2013) “Broad-substrate screen as a tool to identify substrates for bacterial Gcn5-related N-acetyltransferases with unknown substrate specificity”. Protein Science 22(2):222-230). Among all of the potential substrates tested, only the peptides with N-terminal sequence of MDEL24 (SEQ ID NO: 45), DDDI24 (SEQ ID NO: 41) and EEEI24 (SEQ ID NO: 40) were acetylated, as shown in the following table:
The 24-mer substrate peptides differed in their 7 N-terminal amino acids while the 17 C-terminal residues (RWGRPVGRRRRPVRVYP, SEQ ID NO: 39) were kept constant: EEEI24 (EEEIAAL, SEQ ID NO: 40), DDDI24 (DDDIAAL, SEQ ID NO: 41), MDDD24 (MDDDIAA, SEQ ID NO: 42), SESS24 (SESSSKS, SEQ ID NO: 43), AVFA24 (AVFADLD, SEQ ID NO: 44), MDEL24 (MDELFPL, SEQ ID NO: 45), MELL24 (MELLSPP, SEQ ID NO: 46), MLGT24 (MLGTGPA, SEQ ID NO: 47), MTNK24 (MTNKSSL, SEQ ID NO: 48), MLGP24 (MLGPEGG, SEQ ID NO: 49), MAPL24 (MAPLDLD, SEQ ID NO: 50), MKKS24 (MKKSYSG, SEQ ID NO: 51).
Both MDEL (p65, SEQ ID NO: 8) and MDDD24 (unprocessed β-actin, SEQ ID NO: 42) represent cellular NatB substrates.

Product formation | Molecule
50.5 (±1.0) μM | DDDI24: 24-mer substrate peptide: N-terminal DDDIAAL (SEQ ID NO: 41) plus constant RWGRPVGRRRRPVRVYP (DDDIAALRWGRPVGRRRRPVRVYP)

These molecules were tested against T3, NatA complex (Naa15-Naa10) (assay: cell-based or functional assay). Conditions: not given.

IC50 (µM), Nt-acetylation inhibition [µM] | Molecule
4.7 | {CoA-Ac}-SSAE-NH2 [CoA-Ac-SSAE]
247 | {CoA-Ac}-AASE-NH2 [CoA-Ac-AASE]
1.28 | {CoA-Ac}-SSME-NH2 [CoA-Ac-SSME]
36.2 | {CoA-Ac}-SYAE-NH2 [CoA-Ac-SYAE]
5.3 | {CoA-Ac}-SSAA-NH2 [CoA-Ac-SSAA]
> 1000 | {CoA-Ac}-PS[Nle]P (not fully specified (C-terminus); printed as CoA-Ac-PS(Nle)P) [CoA-Ac-PS(Nle)P]
9.47 | {CoA-Ac}-SSSE-NH2 [CoA-Ac-SSSE]
62.4 | {CoA-Ac}-SASE-NH2 [CoA-Ac-SASE]
12.1 | {CoA-Ac}-SAAE-NH2 [CoA-Ac-SAAE]
0.82 | {CoA-Ac}-SSMP-NH2 [CoA-Ac-SSMP]
2.1 | {CoA-Ac}-SSMPV-NH2 [CoA-Ac-SSMPV]
15.4 | {CoA-Ac}-SESS-NH2 [CoA-Ac-SESS]
